The labels stand for the following.
B2: human dominant negative Gαi1 (DNGαi1) with S47C, G202T, G203A, E245A and A326S (natural protein)
chain: MGCTLSAEDKAAVERSKMIDRNLREDGEKAAREVKLLLLGAGESGKCTIVKQMKIIHEAGYSEEECKQYKAVVYSNTIQSIIAIIRAMGRLKIDFGDSARADDARQLFVLAGAAEEGFMTAELAGVIKRLWKDSGVQACFNRSREYQLNDSAAYYLNDLDRIAQPNYIPTQQDVLRTRVKTTGIVETHFTFKDLHFKMFDVTAQRSERKKWIHCFEGVTAIIFCVALSDYDLVLAEDEEMNRMHASMKLFDSICNNKWFTDTSIILFLNKKDLFEEKIKKSPLTICYPEYAGSNTYEEAAAYIQCQFEDLNKRKDTKEIYTHFTCSTDTKNVQFVFDAVTDVIIKNNLKDCGLF
notes: source: HighFive insect cells, coexpressed with the receptor and Gβ1/Gγ2, purified as complex (Strep-Tactin, SEC)

What all share (details): both partners purified
Experiment [1] addresses B2. Put plainly: cryo-EM structure; ligand-free CX3CR1-Gi1 complex; construct-1, DNGαi1 and Gβ1/Gγ2 coexpressed in HighFive cells and purified together (Strep-Tactin, SEC) in LMNG/GDN/CHS; 25 mM Hepes pH 7.5, 150 mM NaCl; apyrase treated.
For experiment [2], the target named is T1, Modified CX3CL1-CX3CR1 fusion followed by the Twin-Strep-Tag at the C terminus ( | human, UniProt P78423 25-100; P49238 1-315, G35C | I120^3.43L | L176^ECL2C | C221^ICL3S | M250^6.54V, pyroglutamate at residue 1 of CX3CL1 (pE1); disulfide between G35C of CX3CL1 and L176C of CX3CR1).
T1 construct: CX3CL1 chemokine domain, residues 1 to 76; numbers count on: the mature protein (pE1 is residue 1); 28-residue linker (14 × Gly-Ser); CX3CR1, human, residues 1 to 315, as in construct-1 with the additional L176C; A signal peptide before CX3CL1 is not described; also called construct-2; fused form of CX3CR1-CX3CL1 with a cross-linking disulfide bond; source: HighFive insect cells, coexpressed with …
T1 sequence: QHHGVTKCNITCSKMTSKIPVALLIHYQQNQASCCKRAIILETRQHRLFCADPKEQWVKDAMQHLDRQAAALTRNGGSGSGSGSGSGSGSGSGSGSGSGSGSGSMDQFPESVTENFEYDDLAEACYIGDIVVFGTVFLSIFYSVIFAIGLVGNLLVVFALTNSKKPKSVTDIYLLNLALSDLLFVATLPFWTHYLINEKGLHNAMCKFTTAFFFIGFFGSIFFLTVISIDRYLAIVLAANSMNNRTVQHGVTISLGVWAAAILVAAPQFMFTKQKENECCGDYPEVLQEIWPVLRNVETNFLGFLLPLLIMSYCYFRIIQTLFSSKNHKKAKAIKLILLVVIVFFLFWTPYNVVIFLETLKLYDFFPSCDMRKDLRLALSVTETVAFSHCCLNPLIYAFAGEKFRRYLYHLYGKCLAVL
The experiment in a line: cryo-EM structure; CX3CL1-bound CX3CR1-Gi1 complex; construct-2 (CX3CL1 fused to CX3CR1, disulfide G35C-L176C), DNGαi1 and Gβ1/Gγ2 coexpressed in HighFive cells and purified together (Strep-Tactin, SEC) in LMNG/CHS; 25 mM Hepes pH 7.5, 150 mM NaCl; apyrase treated.

In experiment [3] the target is T2, CX3CR1 (residues 1 to 315; I120L, L176C, C221S, M250V) as it stands in construct-2 (human, UniProt P49238 1-315, I120^3.43L | L176^ECL2C | C221^ICL3S | M250^6.54V).
T2 construct: CX3CR1, human, residues 1 to 315; Not a free protein: the receptor part of the fusion m2; Written alone for the pair CX3CL1 with CX3CR1; source: HighFive insect cells, part of the fusion construct-2, purified as complex (Strep-Tactin, SEC); not shown: Twin-Strep-tag, C-terminal, kept
T2 sequence (looked up): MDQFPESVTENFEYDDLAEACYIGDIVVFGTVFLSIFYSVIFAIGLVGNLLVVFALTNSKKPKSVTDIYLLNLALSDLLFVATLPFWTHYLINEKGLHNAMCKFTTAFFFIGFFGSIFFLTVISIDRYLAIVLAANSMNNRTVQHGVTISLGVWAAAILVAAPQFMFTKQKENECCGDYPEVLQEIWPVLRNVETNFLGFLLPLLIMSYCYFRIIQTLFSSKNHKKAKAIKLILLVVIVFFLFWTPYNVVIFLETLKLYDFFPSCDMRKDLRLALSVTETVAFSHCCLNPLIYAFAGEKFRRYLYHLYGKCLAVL
The experiment is described as above.

B1: Modified human CX3CR1 (residues 1 to 315) with three mutations (I120L, C221S, M250V) and a C-terminal Twin-Strep-tag (receptor, UniProt P49238 1-315, looked up)
chain: MDQFPESVTENFEYDDLAEACYIGDIVVFGTVFLSIFYSVIFAIGLVGNLLVVFALTNSKKPKSVTDIYLLNLALSDLLFVATLPFWTHYLINEKGLHNAMCKFTTAFFFIGFFGSIFFLTVISIDRYLAIVLAANSMNNRTVQHGVTISLGVWAAAILVAAPQFMFTKQKENECLGDYPEVLQEIWPVLRNVETNFLGFLLPLLIMSYCYFRIIQTLFSSKNHKKAKAIKLILLVVIVFFLFWTPYNVVIFLETLKLYDFFPSCDMRKDLRLALSVTETVAFSHCCLNPLIYAFAGEKFRRYLYHLYGKCLAVL
notes: CX3CR1, human, residues 1 to 315 (40 residues C316 to L355 truncated from the C terminus); also called construct-1; engineered construct; source: HighFive insect cells, coexpressed with DNGαi1 and Gβ1/Gγ2, purified as complex (Strep-Tactin, SEC); not shown: Twin-Strep-tag, C-terminal, kept
As for B1, the binding result in experiment [1] was “binds”. Turning to B2, the binding result in experiment [2] was “binds”.

B3: CX3CL1 (residues 1 to 76, G35C) as it stands in construct-2 (ligand, UniProt P78423 25-100, looked up)
chain: QHHGVTKCNITCSKMTSKIPVALLIHYQQNQASCCKRAIILETRQHRLFCADPKEQWVKDAMQHLDRQAAALTRNG
modifications: pyroglutamate at 1 (pE1)
notes: CX3CL1 chemokine domain, residues 1 to 76; numbers count on: the mature protein (pE1 is residue 1); Written alone for the pair CX3CL1 with CX3CR1; also called chemokine CX3CL1; source: HighFive insect cells, part of the fusion construct-2, purified as complex (Strep-Tactin, SEC)
As for B3, in experiment [3], the binding result is given as “binds”.

(Values after article PMC9242592, “Activation of the human chemokine receptor CX3CR1 regulated by cholesterol” (Science Advances, 2022).)
